Source: publication PMC6684372

Legend:
Assay in all cases: EMSA
[1] = biological target: UV-DDB (DDB1-DDB2 heterodimer) (Homo sapiens) (UniProt Q16531+Q92466); conditions: N at position 20 of strand 1 = tetrahydrofuran (abasic analog), opposite T
[2] = biological target: UV-DDB (DDB1-DDB2 heterodimer) (Homo sapiens, UniProt Q16531;Q92466 1-1140;1-427)
OGG1 = OGG1 (Homo sapiens, UniProt O15527 1-345)
Chain of OGG1 (O15527 whole entry): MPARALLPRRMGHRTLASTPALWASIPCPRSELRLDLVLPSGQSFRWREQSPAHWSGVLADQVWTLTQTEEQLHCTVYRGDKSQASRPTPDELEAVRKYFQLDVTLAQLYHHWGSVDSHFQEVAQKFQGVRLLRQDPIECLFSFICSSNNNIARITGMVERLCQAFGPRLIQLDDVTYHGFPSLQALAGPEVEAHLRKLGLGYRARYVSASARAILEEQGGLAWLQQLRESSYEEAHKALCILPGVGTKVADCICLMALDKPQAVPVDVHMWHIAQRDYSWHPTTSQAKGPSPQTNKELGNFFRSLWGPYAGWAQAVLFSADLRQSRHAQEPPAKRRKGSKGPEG

Chain of UV-DDB (DDB1-DDB2 heterodimer) (Q16531 whole entry, chain 1 of 2): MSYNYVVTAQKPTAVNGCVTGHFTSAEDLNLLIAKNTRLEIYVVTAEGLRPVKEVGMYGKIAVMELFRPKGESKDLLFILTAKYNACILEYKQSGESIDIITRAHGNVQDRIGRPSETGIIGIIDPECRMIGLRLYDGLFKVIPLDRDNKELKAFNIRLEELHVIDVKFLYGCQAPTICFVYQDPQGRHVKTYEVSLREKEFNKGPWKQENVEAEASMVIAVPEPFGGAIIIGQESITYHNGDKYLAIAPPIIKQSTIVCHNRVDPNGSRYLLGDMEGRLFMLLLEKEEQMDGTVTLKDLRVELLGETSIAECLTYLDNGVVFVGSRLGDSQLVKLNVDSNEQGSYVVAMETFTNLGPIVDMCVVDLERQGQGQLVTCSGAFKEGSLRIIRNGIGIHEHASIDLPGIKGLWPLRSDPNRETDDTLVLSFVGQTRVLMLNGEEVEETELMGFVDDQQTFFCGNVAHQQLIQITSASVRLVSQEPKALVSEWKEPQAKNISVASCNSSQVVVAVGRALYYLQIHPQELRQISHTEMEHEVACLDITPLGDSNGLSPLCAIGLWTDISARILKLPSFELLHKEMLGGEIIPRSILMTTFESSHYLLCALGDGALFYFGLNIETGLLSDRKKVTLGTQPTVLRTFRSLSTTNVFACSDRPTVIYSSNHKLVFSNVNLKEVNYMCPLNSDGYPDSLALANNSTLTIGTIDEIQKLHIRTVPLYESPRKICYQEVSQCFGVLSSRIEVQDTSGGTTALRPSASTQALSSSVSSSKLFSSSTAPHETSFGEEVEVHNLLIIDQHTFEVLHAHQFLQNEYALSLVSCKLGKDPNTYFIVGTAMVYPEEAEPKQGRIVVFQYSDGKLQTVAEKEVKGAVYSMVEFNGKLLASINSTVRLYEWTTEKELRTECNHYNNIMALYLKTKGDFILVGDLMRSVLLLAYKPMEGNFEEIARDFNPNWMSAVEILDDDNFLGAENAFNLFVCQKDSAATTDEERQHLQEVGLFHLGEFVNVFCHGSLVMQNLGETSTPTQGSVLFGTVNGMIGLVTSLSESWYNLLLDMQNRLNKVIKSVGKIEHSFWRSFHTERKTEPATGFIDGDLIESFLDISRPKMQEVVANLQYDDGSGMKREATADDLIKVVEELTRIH
Chain of UV-DDB (DDB1-DDB2 heterodimer) (Q92466 whole entry, chain 2 of 2): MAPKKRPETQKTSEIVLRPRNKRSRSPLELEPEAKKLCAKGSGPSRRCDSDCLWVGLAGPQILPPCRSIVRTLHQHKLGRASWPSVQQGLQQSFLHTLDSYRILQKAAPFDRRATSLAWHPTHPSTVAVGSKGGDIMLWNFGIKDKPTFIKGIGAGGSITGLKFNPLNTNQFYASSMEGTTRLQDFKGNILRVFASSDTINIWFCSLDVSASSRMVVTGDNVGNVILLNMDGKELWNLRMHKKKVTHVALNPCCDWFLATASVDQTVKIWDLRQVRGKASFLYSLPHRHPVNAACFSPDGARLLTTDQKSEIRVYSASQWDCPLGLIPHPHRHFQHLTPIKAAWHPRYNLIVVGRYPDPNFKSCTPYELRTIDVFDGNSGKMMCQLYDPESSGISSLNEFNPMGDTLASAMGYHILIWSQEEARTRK
Chain of UV-DDB (DDB1-DDB2 heterodimer) (Homo sapiens) (Q16531 whole entry, chain 1 of 2): as the sequence (Q16531 whole entry, chain 1 of 2) above
Chain of UV-DDB (DDB1-DDB2 heterodimer) (Homo sapiens) (Q92466 whole entry, chain 2 of 2): as the sequence (Q92466 whole entry, chain 2 of 2) above

Molecule | Kd [1] [nM] | Kd [2] [nM] | binding signal (OGG1)
CCGAGTCATTCCTGCAGCGNGTCCATGGGAGTCAAAT / ATTTGACTCCCATGGACTCGCTGCAGGAATGACTCGG [THF37] | 3.9 | – | –
8-oxoG37(G:C) (dsDNA, 8-oxoG at position 21 of strand 1 (printed as Z), opposite C) DNA 1: CCGAGTCATTCCTGCAGCGAGTCCATGGGAGTCAAAT DNA 2: ATTTGACTCCCATGGACTCGCTGCAGGAATGACTCGG | – | 160 ± 12.4 | ~3 fold lower affinity than THF37
8-oxoG37(G:A) (dsDNA, 8-oxoG at position 21 of strand 1 (printed as Z), opposite A) DNA 1: CCGAGTCATTCCTGCAGCGAGTCCATGGGAGTCAAAT DNA 2: ATTTGACTCCCATGGAATCGCTGCAGGAATGACTCGG | – | 164 ± 14.8 | –
UD37 (dsDNA) DNA 1: CCGAGTCATTCCTGCAGCGAGTCCATGGGAGTCAAAT DNA 2: ATTTGACTCCCATGGACTCGCTGCAGGAATGACTCGG | – | 1110 ± 95.5 | –
